Results: PMC10258763, “Atomic model for core modifying region of human fatty acid synthase in complex with Denifanstat” (Nature Communications, 2023)

Target: the molecule itself
Test: SEC + other: cryo-EM 2D class averages; truncated modifying region purified by Ni-NTA and Superdex 200 increase 10/300; 2D classes of elution fraction 3

B1: isolated modifying region of hFASN expressed and purified as an independent construct (G855 to G2511) (domain or fragment, human, UniProt P49327 855-2511, looked up)
chain: GSPSAAIYNIDTSSESPDHYLVDHTLDGRVLFPATGYLSIVWKTLARALGLGVEQLPVVFEDVVLHQATILPKTGTVSLEVRLLEASRAFEVSENGNLVVSGKVYQWDDPDPRLFDHPESPTPNPTEPLFLAQAEVYKELRLRGYDYGPHFQGILEASLEGDSGRLLWKDNWVSFMDTMLQMSILGSAKHGLYLPTRVTAIHIDPATHRQKLYTLQDKAQVADVVVSRWLRVTVAGGVHISGLHTESAPRRQQEQQVPILEKFCFTPHTEEGCLSERAALQEELQLCKGLVQALQTKVTQQGLKMVVPGLDGAQIPRDPSQQELPRLLSAACRLQLNGNLQLELAQVLAQERPKLPEDPLLSGLLDSPALKACLDTAVENMPSLKMKVVEVLAGHGHLYSRIPGLLSPHPLLQLSYTATDRHPQALEAAQAELQQHDVAQGQWDPADPAPSALGSADLLVCNCAVAALGDPASALSNMVAALREGGFLLLHTLLRGHPLGDIVAFLTSTEPQYGQGILSQDAWESLFSRVSLRLVGLKKSFYGSTLFLCRRPTPQDSPIFLPVDDTSFRWVESLKGILADEDSSRPVWLKAINCATSGVVGLVNCLRREPGGNRLRCVLLSNLSSTSHVPEVDPGSAELQKVLQGDLVMNVYRDGAWGAFRHFLLEEDKPEEPTAHAFVSTLTRGDLSSIRWVCSSLRHAQPTCPGAQLCTVYYASLNFRDIMLATGKLSPDAIPGKWTSQDSLLGMEFSGRDASGKRVMGLVPAKGLATSVLLSPDFLWDVPSNWTLEEAASVPVVYSTAYYALVVRGRVRPGETLLIHSGSGGVGQAAIAIALSLGCRVFTTVGSAEKRAYLQARFPQLDSTSFANSRDTSFEQHVLWHTGGKGVDLVLNSLAEEKLQASVRCLATHGRFLEIGKFDLSQNHPLGMAIFLKNVTFHGVLLDAFFNESSADWREVWALVQAGIRDGVVRPLKCTVFHGAQVEDAFRYMAQGKHIGKVVVQVLAEEPEAVLKGAKPKLMSAISKTFCPAHKSYIIAGGLGGFGLELAQWLIQRGVQKLVLTSRSGIRTGYQAKQVRRWRRQGVQVQVSTSNISSLEGARGLIAEAAQLGPVGGVFNLAVVLRDGLLENQTPEFFQDVCKPKYSGTLNLDRVTREACPELDYFVVFSSVSCGRGNAGQSNYGFANSAMERICEKRRHEGLPGLAVQWGAIGDVGILVETMSTNDTIVSGTLPQRMASCLEVLDLFLNQPHMVLSSFVLAEKAAAYRDRDSQRDLVEAVAHILGIRDLAAVNLDSSLADLGLDSLMSVEVRQTLERELNLVLSVREVRQLTLRKLQELSSKADEASELACPTPKEDGLAQQQTQLNLRSLLVNPEGPTLMRLNSVQSSERPLFLVHPIEGSTTVFHSLASRLSIPTYGLQCTRAAPLDSIHSLAAYYIDCIRQVQPEGPYRVAGYSYGACVAFEMCSQLQAQQSPAPTHNSLFLFDGSPTYVLAYTQSYRAKLTPGCEAEAETEAICFFVQQFTDMEHNRVLEALLPLKGLEERVAAAVDLIIKSHQGLDRQELSFAARSFYYKLRAAEQYTPKAKYHGNVMLLRAKTGGAYGEDLGADYNLSQVCDGKVSVHVIEGDHRTLLEGSGLESIISIIHSSLAEPRVSVREG
notes: human fatty acid synthase (FASN), residues G855 to G2511, modifying region (DH, ΨME, ΨKR, ER, KR, ACP, TE); also called truncated modifying region; truncated hFASN modifying region; source: HEK293F, transfected (pcDNA3.1, gene synthesized by GenScript), purified (Ni-NTA, Superdex 200)
stoichiometry N: 2
